A short description of this series: yeast display, Sf9 membrane polyspecificity reagent, FACS + sequencing; frameworks hold sequencing errors. In short, it runs like this:
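Polyreactivity labels are assigned by the sorting gate from which each nanobody was recovered. The gates were low and high (top ~1%), set on anti-HA fluorescence for expression and streptavidin fluorescence for reagent binding. Before sorting, galactose-induced (36–48 hours) yeast display cells were stained for 1 hour at 4 °C with 10% biotinylated, detergent-solubilized Sf9 membrane reagent.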
For “QVQLVESGGGLVQAGGSLRLSCAASGSTLYVYTMGWYRQAPGKERELVATINTSGSRTYYADSLKGRFTISRDIAKNTVYLQMNSLKPEDTAVYYCNARSSRWFYGYNYWGQGTQVTVSS”, the “polyreactivity (PSR sort gate)” value is given as “high polyreactivity”.
Consider “QVQLVESGGGLVQAGGSLRLSCAASGSTLYWYAMGWYRQAPGKERELVASISWSGGSTYYADSVKGRFTISRDNAKITVYLQMNSLKPEDTAVYYCDAVRHYHGTWYDYWGEGTQVTVSS”, for which the “polyreactivity (PSR sort gate)” value was “high polyreactivity”.
With “QVQLVESGGGLVQAGGSLRLSCAASGSTMDYNAMGWYRQAPGKERELVAAITNGGSTTYADSVKGRFTISRDNAKNTVYLQMNSLNPEDTAVYYCAAKWYPQLWFWKFLTYNYWGQGPQVTVSS” the entry was “low polyreactivity”.
With “QVQLVESGGGLVQAGGSLRLSCAASGSTNSQYAMGWYRQAPGKERELVAAITTSDGSTNYADSVKGRFTISRDNAKNTVYLQMNSLKPEDTAVYYCNTEYFYFSFGYWGQGTQVTVSS” the entry was “low polyreactivity”; with “QVQLVESGGGLVQAGGSLRLSCAASGSTRYYMGWYRQAPGKEREMVAAISKSGGTTYYADSVKGRFTISRDNAMTTVYLQMTSLKPEDTAVYYCAAQRSRSYTYDYWGQGTQVTVSS”, “high polyreactivity”; with “QVQLVESGGGLVQAGGSLRLSCAASGSTSDENAMGWYRQAPGKERELVASITVSGGSTSYADSVKGRFTISRDNAKNTVYLQMNSLKPEDTAVYYCNTDFGQAHTLSWYEDMDYWGQGTQVTVSS”, “low polyreactivity”.
On to “QVQLVESGGGLVQAGGSLRLSCAASGSTSDINAMGWYRPAPGKERELVAVITFSGGTTNYADSVKGRFTISRDNAKNTVYLQMNSLKPEDTAVYYCNADTLTTTRRFNPYDYWGQGTQVTVSS”, for which the “polyreactivity (PSR sort gate)” value was “low polyreactivity”.
With “QVQLVESGGGLVQAGGSLRLSCAASGSTSDINAMGWYRQAPGKERELVAVITFSGGSTNYADSVKGRFTISRDNAKNTVYLQMNSLKPEDTAVYYCSTSGQLYYSRNFDYWGQGTQVTVSS” the entry was “low polyreactivity”.
With “QVQLVESGGGLVQAGGSLRLSCAASGSTSDSNAMGWSRQAPGKERELVAAITYSGDSTYYAYSVKGRFTISRDNAKNTVYLQMNSLKPEDTAVYYCATETYPSYEVDYWGQGTQVTVSS” the entry was “low polyreactivity”.
The same measure for “QVQLVESGGGLVQAGGSLRLSCAASGSTSFLYALGWYRQAPGKERELVAAISRSGGTTYYADSVKGRFTISRDNAKNTVYLQMNSLKPEDTAVYYCNAVGPKRYDYWGQGTQVTVSS”: “high polyreactivity”; for “QVQLVESGGGLVQAGGSLRLSCAASGSTSKGYAMGGYRQAPGKDRELVAAISAGGGRTYYADSVKGRFTISRENAKNTVYLQMNSLKPEDTAVYYCANAGTIYQSPREYWGQGTQVTVSS”: “high polyreactivity”; for “QVQLVESGGGLVQAGGSLRLSCAASGSTSKSYTMGWYRQAPGKERELVAAISYSGVSTYYADSVKGRFTISRDNAKNTVYLQMNSLKPEDTAVYDGAADWVPRQYPGRGGYWGQGTQVTVSS”: “high polyreactivity”.
As to “QVQLVESGGGLVQAGGSLRLSCAASGSTSLYYAMGWYRQAPGKEREFVAAITWSGGSTYYADSVKGRFTISRDNAKNTVYLQMNSLKPEDTAVYYCAARSYGYSAGYYWGQGTQVTVSS”, the “polyreactivity (PSR sort gate)” value is given as “high polyreactivity”.
The same measure for “QVQLVESGGGLVQAGGSLRLSCAASGSTSPTNVMGWYRQAPGKERELVAAISYSGGRTYYADSVKGRFTISRDNAKNTVYLQMNSLKPEDTAVYYCNAGKRGSTYYYWGQGTQVTVSS”: “high polyreactivity”; for “QVQLVESGGGLVQAGGSLRLSCAASGSTSQINAMGWYRQAPGKERELVAAITWSGDSTYYADSVKGRFTISRDNAKNTVYLQMNSLKPEDTAVYYCAAVSRYFSTYLYDYWGQGTQVTVSS”: “low polyreactivity”.
With “QVQLVESGGGLVQAGGSLRLSCAASGSTSRGYAMAWYRQAPGKERELFASITLSGGNTYYADSVKGRFTISRDNAKNTVYLQMNSLKPEDTAVYYCAADDRGSSYGHFTVEYGYWGQGTQVTVSS” the entry was “low polyreactivity”; with “QVQLVESGGGLVQAGGSLRLSCAASGSTSRTYAMGWYRQAPAKERELVAASSSSGGRTYYADSVKGRFTISRDNAKNTVYLQMNSMKPEDTAVYYCNARTYSYRGYNYWGQGTQVTVSS”, “high polyreactivity”.
Regarding “QVQLVESGGGLVQAGGSLRLSCAASGSTSSNNAMGWYRQAPGKERELVADISTNGDSTSYADSVKGRFTISRDNAKNTVYLQMNSLKPEDTAVYYCAASTYVTYWEYDFWGQGTQVTVSS”, the “polyreactivity (PSR sort gate)” value is reported as “low polyreactivity”.
For “QVQLVESGGGLVQAGGSLRLSCAASGSTSTLYAMGWYRQAPGKERELVAAISKSGGRTYYADSVKGRFTISRDNAKNTVYLQMNSLKPEDTAVYYCNTVPGRYRTFDYWGQGTQVTVSS”, the “polyreactivity (PSR sort gate)” value is recorded as “high polyreactivity”.
The same measure for “QVQLVESGGGLVQAGGSLRLSCAASGSTSTRNAMGWYRPAPGKERELVAAITSGGNTYYADSVKGRFTISRDNAKNTVYLQMNSLKPEDTAVYYCAAASPGPWRYDYWGQGTQVTVSS”: “high polyreactivity”.
The same measure for “QVQLVESGGGLVQAGGSLRLSCAASGSTSVPYAMGWYRQAPGKERELVAAITIGGSTNYADSVKGRFTISRDNAKNTVYLQMNSLKPEDTAVYYCNAVLTQYWKLVRYYGVDYWGQGTQVTVSS”: “low polyreactivity”; for “QVQLVESGGGLVQAGGSLRLSCAASGSTSVQYAMGWYRQAPVKERELVAAIDRSGGSTSYADSVKGRFTISRDNANNTVYLQMNSLKPEDTAVYYCNADPVRSTYSYDYWGQGTQVTVSS”: “low polyreactivity”; for “QVQLVESGGGLVQAGGSLRLSCAASGSTSVVNTMGWYRQAPGKERELVAAISWSGGSTYYADSVKGRFTISRDNAKNTVYLQMNSLKPEDTAVYYCNAQRNFKSITEYDYWGQGTQVTVSS”: “high polyreactivity”.
Turning to “QVQLVESGGGLVQAGGSLRLSCAASGSTSYLYPMGWDRQAPGKERELVAAISWNGGSTYYADSVKGRFTISLDNAKNTVYLQMNSLKPEDTAVYYCAASVHATSFSGGRHWFKLYYWGQGTQVTVSS”, the “polyreactivity (PSR sort gate)” value is “high polyreactivity”.
The same measure for “QVQLVESGGGLVQAGGSLRLSCAASGSTSYNAMGWYRQAPGKERELVAAISDGGGSTYYADSVKGRFTISRDNAKNTVYLQMISLKPEDTAVYYCAADTITGDGYWAQGTQVTVSS”: “low polyreactivity”.
As for “QVQLVESGGGLVQAGGSLRLSCAASGSTSYNYVMGWYRQAPGKERELVAAISFTDGTTYYADSVKGRFTISRDNAKNTVYLQMNSLKPEDTAVYYCAAGYTGYTYTEMDYWGQVTQVTVSS”, the “polyreactivity (PSR sort gate)” value is given as “low polyreactivity”.
With “QVQLVESGGGLVQAGGSLRLSCAASGSTSYSYMGWYRQAPGKERELVAAIDESGGSTYYADSVKGRFTISRDNAKNTVYLQMNSLKPEDTAVYYCNRRYGRSYRWGYGYWGQGTQVTVSS” the entry was “low polyreactivity”; with “QVQLVESGGGLVQAGGSLRLSCAASGSTSYVYAMGWYRQAPGKERELVAAISGSGGRTYYADSVKGRFTISRDNAKNTVYLQMNSLKPEDTAVYYCNALPRPSYPFDYWGQGTQVTVSS”, “high polyreactivity”.
Regarding “QVQLVESGGGLVQAGGSLRLSCAASGSTVEYNAMGGYRPATGKERELVAAITSGGSTTYADSVKGRFTISRDNAKNTVYLQMNSLKPEDTAVYYCAAVGRRVSAWYYYWGQGTQVTVSS”, the “polyreactivity (PSR sort gate)” value is recorded as “high polyreactivity”.
With “QVQLVESGGGLVQAGGSLRLSCAASGSTVNKYAMGWYRHAPGKERELVAAITTSGGRTYYADSVKGRFTISRDNAKNTVYLQMNSLKPEDTAVYYCNARIRRNYAYPKGESWGQGTQVTVSS” the entry was “high polyreactivity”.
The same measure for “QVQLVESGGGLVQAGGSLRLSCAASGSTVRRYAMGWYRQAPGKERELVATISSGGRTNYADSVKGRFTISRDNAKNTVYLEMNSLKPEDTGVYYCAARPYFYERSAGYYWGQGTQVTVSS”: “high polyreactivity”.
The same measure for “QVQLVESGGGLVQAGGSLRLSCAASGSTVRYNAMGWYRQARGIERELVAAISYGSSTNYADSVKGRFTISRDNAKNTVFLQMNSLKPEDTAVYYCAAQPGYYDDFYYWGHGTQVTVSS”: “low polyreactivity”.
As for “QVQLVESGGGLVQAGGSLRLSCAASGSTVYASVMGWSRQAPGKARELVAAITSAGSTDYADSVKGRFTISRDNAKNTVYLQMNSRKPEDTAVYYCAADAYTDSPYYKYDYWGQGTQVTVSS”, the “polyreactivity (PSR sort gate)” value is listed as “low polyreactivity”.
Regarding “QVQLVESGGGLVQAGGSLRLSCAASGSTWVYAMGWYRQAPGKERELFAAITVSGGSTYYADSVKGRFTISRDNAKNTVYLQMNSQKPEDPAVYYCAAYDSYRKFKYLGQGTQVTVSS”, the “polyreactivity (PSR sort gate)” value is recorded as “high polyreactivity”.
With “QVQLVESGGGLVQAGGSLRLSCAASGSTYAAKTMGWYRQAPGKERELVAAITVRGGSTYYADSVKGRFTISRDNAKNTVYLQMNSLKPEDTAVYYCATRHPARRDYWGQGTQVTVSS” the entry was “low polyreactivity”; with “QVQLVESGGGLVQAGGSLRLSCAASGSTYAVNVMGWYRQAPGKERELVATITYRDGRTYYADSVKGRFTISRDNAKNTVYLQMNSLKPEDTAVYYCAADAYRAQGDYWGQGTQVTVSS”, “low polyreactivity”; with “QVQLVESGGGLVQAGGSLRLSCAASGSTYEIYAMGWYRQAPGKDRELVAAISSGGSTNYADSVKGRFTISRDNAKNTVYLQMNSLKPEDTAVYYCVYAIQFDYWGQGTQVTVSS”, “low polyreactivity”.
Turning to “QVQLVESGGGLVQAGGSLRLSCAASGSTYENAMGWYRQAPGKERELVAVISRSGGSTYYADSVKGRFTISRDNAKNTVYLQMNSLNPEDTAVYYCATVYSAWSWVHGYYVAMDYWGQGTQVTVSS”, the “polyreactivity (PSR sort gate)” value is “high polyreactivity”.
With “QVQLVESGGGLVQAGGSLRLSCAASGSTYGRNARGWYRQAPGKERELVAAISSGGRTYYADSVKGRFTISRDNAKNTVYLQMNSLKPEDTAVYYCARDDYGTLVQLYGRGFNYWGQGTQVTVSS” the entry was “low polyreactivity”.
The same measure for “QVQLVESGGGLVQAGGSLRLSCAASGSTYNAMGWYRQAPGKEREFVAAISWGGGSTYYADSVKGRFTISRDNAKNTVYLQMNSLKPEDTAVYYCAKTPNYRIRHDYWGQGTQVTVSS”: “low polyreactivity”.
With “QVQLVESGGGLVQAGGSLRLSCAASGSTYPSYAMGWYRQAPGKERELVAAINSGGSTNYADSVKGRFTISRDNAKNTVYLQMNSLKPEDTAVYYCAASVYGQHAGPGRWYTFYYWGQGTQVTVSS” the entry was “low polyreactivity”.
